The results in this text go back to PMC10016618 (Nature cell biology, 2021).

Residue numbers refer to the chain shown, from its start. Numbers in names are those of the source. Where two headings read alike, the source gives them in different places.

T1: Kif7-DM (1-543aa) (human, UniProt Q2M1P5 1-543)
T1 sequence (looked up): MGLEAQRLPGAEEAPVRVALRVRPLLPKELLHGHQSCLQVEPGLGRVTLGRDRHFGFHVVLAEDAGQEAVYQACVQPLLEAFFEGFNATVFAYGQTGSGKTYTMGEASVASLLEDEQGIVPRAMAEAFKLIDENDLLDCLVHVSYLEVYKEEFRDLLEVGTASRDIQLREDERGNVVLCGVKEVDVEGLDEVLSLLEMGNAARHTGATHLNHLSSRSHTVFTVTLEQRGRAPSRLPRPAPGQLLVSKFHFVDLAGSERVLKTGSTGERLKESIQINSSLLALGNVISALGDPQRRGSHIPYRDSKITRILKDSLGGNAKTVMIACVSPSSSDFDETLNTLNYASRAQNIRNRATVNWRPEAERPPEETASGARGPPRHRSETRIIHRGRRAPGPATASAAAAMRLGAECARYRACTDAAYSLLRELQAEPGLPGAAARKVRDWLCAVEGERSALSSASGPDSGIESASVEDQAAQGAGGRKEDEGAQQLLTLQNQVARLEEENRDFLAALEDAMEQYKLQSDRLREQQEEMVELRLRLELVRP

T2: Kif7-DM-GFP (1-543aa) (human, UniProt Q2M1P5 1-543)
T2 sequence (looked up): T1 sequence (looked up)

B1: Gli2-ZF (domain or fragment, human, UniProt P10070 418-604, looked up)
chain: KEDLDRDDCKQEAEVVIYETNCHWEDCTKEYDTQEQLVHHINNEHIHGEKKEFVCRWQACTREQKPFKAQYMLVVHMRRHTGEKPHKCTFEGCSKAYSRLENLKTHLRSHTGEKPYVCEHEGCNKAFSNASDRAKHQNRTHSNEKPYICKIPGCTKRYTDPSSLRKHVKTVHGPDAHVTKKQRNDVH
B2: Gli2-ZF-GFP (domain or fragment, human, UniProt P10070 418-604, looked up)
chain: B1 chain
B3: Kif7-DM(E502A)-GFP (domain or fragment, human, UniProt Q2M1P5 1-543, looked up)
chain: T1 sequence (looked up) with E502A
B4: Kif7M-Kif27CC-GFP (other, human, UniProt Q2M1P5 1-462, looked up)
chain: MGLEAQRLPGAEEAPVRVALRVRPLLPKELLHGHQSCLQVEPGLGRVTLGRDRHFGFHVVLAEDAGQEAVYQACVQPLLEAFFEGFNATVFAYGQTGSGKTYTMGEASVASLLEDEQGIVPRAMAEAFKLIDENDLLDCLVHVSYLEVYKEEFRDLLEVGTASRDIQLREDERGNVVLCGVKEVDVEGLDEVLSLLEMGNAARHTGATHLNHLSSRSHTVFTVTLEQRGRAPSRLPRPAPGQLLVSKFHFVDLAGSERVLKTGSTGERLKESIQINSSLLALGNVISALGDPQRRGSHIPYRDSKITRILKDSLGGNAKTVMIACVSPSSSDFDETLNTLNYASRAQNIRNRATVNWRPEAERPPEETASGARGPPRHRSETRIIHRGRRAPGPATASAAAAMRLGAECARYRACTDAAYSLLRELQAEPGLPGAAARKVRDWLCAVEGERSALSSASGPDSVLQLKRELKKCQCVLAADEVVFNQKELEVKELKNQVQMMVQENKGHAVSLKEAQKVNRLQNEKIIEQQLLVDQLSEELTKLNLSVTSSAKENCGDG
B5: GST-Kif7-SCC (481-543aa) (domain or fragment, human, UniProt Q2M1P5 481-543, looked up)
chain: KEDEGAQQLLTLQNQVARLEEENRDFLAALEDAMEQYKLQSDRLREQQEEMVELRLRLELVRP
B6: GST-Kif7-CC-GFP (domain or fragment, human, UniProt Q2M1P5 460-600, looked up)
chain: PDSGIESASVEDQAAQGAGGRKEDEGAQQLLTLQNQVARLEEENRDFLAALEDAMEQYKLQSDRLREQQEEMVELRLRLELVRPGWGGPRLLNGLPPGSFVPRPHTAPLGGAHAHVLGMVPPACLPGDEVGSEQRGEQVTN
B7: GST-Kif7-CC (460-600aa) (domain or fragment, human, UniProt Q2M1P5 460-600, looked up)
chain: B6 chain
B8: GST-Kif7-CC D505A (domain or fragment, human, UniProt Q2M1P5 460-600, looked up)
chain: B6 chain with D46A
B9: Kif27M-Kif7CC-GFP (other, human, UniProt Q86VH2 1-475, looked up)
chain: MEEIPVKVAVRIRPLLCKEALHNHQVCVRVIPNSQQVIIGRDRVFTFDFVFGKNSTQDEVYNTCIKPLVLSLIEGYNATVFAYGQTGSGKTYTIGGGHIASVVEGQKGIIPRAIQEIFQSISEHPSIDFNVKVSYIEVYKEDLRDLLELETSMKDLHIREDEKGNTVIVGAKECHVESAGEVMSLLEMGNAARHTGTTQMNEHSSRSHAIFTISICQVHKNMEAAEDGSWYSPRHIVSKFHFVDLAGSERVTKTGNTGERFKESIQINSGLLALGNVISALGDPRRKSSHIPYRDAKITRLLKDSLGGSAKTVMITCVSPSSSNFDESLNSLKYANRARNIRNKPTVNFSPESDRIDEMEFEIKLLREALQSQQAGVSQTTQINREGSPDTNRIHSLEEQVAQLQGECLGYQCCVEEAFTFLVDLKDTVRLNEKQQHKLQEWFNMIQEVRKAVLTSFRGIGGTASLEEGPQHVTVPDSGIESASVEDQAAQGAGGRKEDEGAQQLLTLQNQVARLEEENRDFLAALEDAMEQYKLQSDRLREQQEEMVELRLRLELVRPGWGGPRLLNGLPPGSFVPRPHTAPLGGAHAHVLGMVPPACLPGDEVGSEQRGEQVTN

One series has as its target T1, Kif7-DM (1-543aa). Description: BLI. On the technique in general: Biolayer interferometry detects binding as a change in optical thickness at a sensor tip.
Series [1] deals with T2, Kif7-DM-GFP (1-543aa). Description: BLI.
In the series “Kif7-DM(E502A)-GFP” the target is B3. Description: BLI.
The target of the series “GST-Kif7-CC-GFP” is B6. Description: SEC. On the technique in general: In gel filtration, larger molecules generally elute earlier.
Series [2] deals with T2, Kif7-DM-GFP (1-543aa). Description: SEC.
The series “SEC” deals with the molecule itself. Description: SEC.
In series [3] the target is B1. Description: BLI.
Series [4] deals with B1. Description: BLI. The source holds these as a separate data set.
The series “Gli2-ZF-GFP” has as its target B2. Description: BLI.

Broadly, the Kd is the concentration at which binding is half-saturated. High values mean weaker binding, low ones tighter binding. Turning to B1, the results for the dissociation constant Kd with Kif7-DM (1-543aa), in the series with Kif7-DM-GFP (1-543aa) [1] and with Kif7-DM(E502A)-GFP were 99 ± 25 nM, 138 ± 41 nM and 414 ± 103 nM, respectively.
Usually stoichiometry N stands for the number of molecules, sites or subunits per partner or assembly. As for B2, the “stoichiometry N” value in the series with GST-Kif7-CC-GFP is 0.5 Gli2-ZF-GFP per Kif7-CC-GFP chain (one per dimer); with Kif7-DM-GFP (1-543aa) [2], 1 Gli2-ZF per Kif7-DM chain (two per dimer).
In the case of B3, the “stoichiometry N” value in “SEC” came to 2.
In the series with Gli2-ZF [3], B4 displayed a Kd of 397 ± 88 nM.
B5: the dissociation constant Kd in the series with Gli2-ZF [4] came to 69 ± 20 nM.
As for B6, the Kd with Gli2-ZF [4] stood at 65 ± 22 nM; with Gli2-ZF-GFP, 57 ± 9 nM.
In the series with Gli2-ZF [4], B7 yielded a Kd of 48 ± 5 nM.
With B8, in the series with Gli2-ZF [4], the binding result is reported as “binds”.
With B9, the “stoichiometry N” value in “SEC” worked out at 2. Moreover, the Kd with Gli2-ZF [3] stood at 217 ± 70 nM.
